Measurements: patent US20090062180A1 (TEL AVIV UNIVERSITY FUTURE TECHNOLOGY DEVELOPMENT L P, published 2009)
Each block holds one binder with its values, some of them ahead of it. Square brackets hold non-standard residues; d marks the D form. Ends that are not written are not given here. * marks the point of attachment. Myristoyl = CCCCCCCCCCCCCC(=O)*; pS = N[C@@H](COP(=O)(O)O)C(=O)O

Key:
[1] = target: T1, Purified recombinant rabbit GSK-3β (glycogen synthase kinase-3β) (rabbit, UniProt A0A5F9DUX8 1-420); test: cell-based or functional assay
[2] = target: T1, Purified recombinant rabbit GSK-3β …; test: Lineweaver-Burk analysis of the in vitro GSK-3 kinase assay; competitive against PGS-1 peptide substrate
Method: The results represent phosphate incorporation into PGS-1 peptide substrate (CPM). […] Each point is a mean of duplicate samples.
In vitro inhibition assays: Purified recombinant rabbit GSK-30 (Eldar-Finkelman et al., 1996) was incubated with peptide substrate PGS-1 ([…](p)EDEEE) (SEQ ID NO:15) and with a peptide inhibitor at indicated concentrations. The reaction mixture included Tris 50 mM (pH=7.3), 10 mM MgAc, ³²P[γ-ATP] (100 μM), 0.01% β-mercaptoethanol, and was incubated for 10 minutes at 30° C. Reactions were spotted on phosphocellulose paper (p81), washed with 100 mM phosphoric acid, and counted for radioactivity (as described in Eldar-Finkelman et al., 1996).

[3] = target: T1, Purified recombinant rabbit GSK-3β …; test: cell-based or functional assay; remark: listed apart in the source
[4] = target: casein kinase-2 (CK-2); test: cell-based or functional assay
[5] = target: catalytic subunit of cAMP dependent protein kinase (PKA); test: cell-based or functional assay
[6] = target: Protein kinase C-δ; test: cell-based or functional assay
[7] = target: Cyclic dependent protein kinase, cdc2; test: cell-based or functional assay
[8] = target: mitogen activated protein kinase (MAPK); test: cell-based or functional assay
[9] = target: Protein kinase B (PKB); test: cell-based or functional assay
[10] = target: endogenous GSK-3 (in HEK 293 cells); test: cell-based or functional assay

Inhibitor functionality (IC50) [1]: > 800 µM
Binder: PAPPQ[pS]P [Peptide No. 12 PAPPQS(p)P]

Ki [2]: 70 µM | IC50 (in vitro GSK-3 kinase inhibition, PGS-1 substrate) [3]: 150 µM | % Maximal activity (kinase activity with 200 µM L803) [4]: 117% | % Maximal activity (kinase activity with 200 µM L803) [5]: 86% | % Maximal activity (kinase activity with 200 µM L803) [6]: 111% | % Maximal activity (kinase activity with 200 µM L803) [7]: 90% | % Maximal activity (kinase activity with 200 µM L803) [8]: 106% | % Maximal activity (kinase activity with 200 µM L803) [9]: 91%
Binder: KEAPPAPPQ[pS]P (also called peptide 9) [Peptide No. 9 KEAPPAPPQS(p)P (L803)]

IC50 (comparative GSK-3β inhibition assay, PGS-1 substrate; FIG. 4) [3]: 40 µM | IC50 (in vitro GSK-3 kinase inhibition, PGS-1 substrate; FIGS. 3a-b) [3]: 40 µM | glycogen synthase activity in HEK 293 cells [10]: 2.5 fold
Binder: Myristoyl-GKEAPPAPPQ[pS]P [L803-mts (N-Myristol-GKEAPPAPPQS(p)P)]
